According to paper PMC8426336:

Molecular target: Trimeric form of SARS-CoV-2 RBD (T-RBD) (SARS-CoV-2 | not stated)
Assay: western blot under reduced and nonreduced conditions

In the case of Trimeric form of SARS-CoV-2 RBD (T-RBD), the stoichiometry N is reported as 3.
